Laboratory results: patent US8431161B2, “Microparticle and pharmaceutical composition thereof” (Toray Industries, Inc., priority 2008, dated 2013)
Read-outs that look alike come from different tables or passages of the source.

Experiments:
[1] = Body weight changes of pituitary gland extracted mouse after hGH microparticles; assay type: in vivo; details: hypodermic administration
[2] = mouse, in vivo
Method: 300 mg of the prepared microparticles was suspended and dispersed in 3 ml of phosphate physiological buffer solution (PBS), and centrifuged for 5 minutes at 80×g to precipitate microparticles, and the supernatant was transferred into other tube. The supernatant was centrifuged again for 5 minutes at 80×g to precipitate the remaining particles, and the supernatant was removed. By re-dispersing in 1 ml of PBS after first time of centrifugal precipitation and second time of centrifugal precipitation, the same centrifugal cleaning operation was repeated three times, and the growth hormone not encapsulated in the microparticles were removed. Finally, the precipitation was dispersed again in 200 μl of PBS, and an administration solution was obtained.
This solution was injected hypodermically at two positions in the back of 10-week male Balb/C mouse, and the blood was sampled at specific time intervals from the caudal vein. In the sampled blood, heparin of final concentration of 3.31 U/ml was added, and plasma was collected by centrifugal separation for 5 minutes at 5,000 rpm, and the concentration of growth hormone in plasma was measured by using an ELISA kit.
By way of comparison, a non-granulated human growth hormone protein solution (700 μg/0.2 ml) was hypodermically administered in mouse, and the blood was sampled similarly. […]

[3] = Hypodermic administration of Exendin-4-encapsulating microparticles in SCID mouse, Exendin-4 in plasma; assay type: in vivo; details: 700 μg/0.2 ml
Method: (§1) The supernatant was centrifugally separated again for 5 minutes at 80×g, and the remaining particles were precipitated, and the supernatant was removed.
This solution was hypodermically injected in the back of 8-week-old SCID mouse (CB17/lcr-Prkdcscid/CrlCrlk) (from Crea Japan Inc.), and the blood was sampled at specific intervals from the caudal vein.

[4] = mouse, in vivo; remark: listed apart in the source
Method: as §1

| Substance | body weight increase [1] | time in which blood level dropped to a level before administration [2] | blood level in 1 hour after administration (Exendin-4 in plasma) [3] | time in which blood level dropped to a level before administration [4] |
| --- | --- | --- | --- | --- |
| human growth hormone [non-granulated human growth hormone] | about 5% | a day | – | – |
| Exendin-4 [non-granulated Exendin-4] | – | – | very high | a day |
